According to patent publication EP1988097A1 (dated 2008):

Tests used:
[1] = molecular target: T1, P501S peptide on HLA-B*51:01:01 (human); test: cytokine release
T1 peptide: ASACDVSVRV

[2] = molecular target: T2, P501S peptide on HLA-B*51:01:01 (human); test: stated without data
T2 peptide: SACDVSVRV

B1: TCR of the P501S-specific T cell clone 4E5 (TCR, V domains shown)
Valpha: AQKITQTQPGMFVQEKEAVTLDCTYDTSDQSYGLFWYKQPSSGEMIFLIYQGSYDEQNATEGRYSLNFQKARKSANLVISASQLGDSAMYFCAMREGAGGGNKLTFGTGTQLKVEL
Vbeta: ETGVTQTPRHLVMGMTNKKSLKCEQHLGHNAMYWYKQSAKKPLELMFVYSLEERVENNSVPSRFSPECPNSSHLFLHLHTLQPEDSALYLCASSQDRTSSSYEQYFGPGTRLTVT
Q: What does the source list for B1?
A: binding result [1]: recognises; binding result [2]: recognises
